In the supplement of paper PMC7125110:
± gives the standard error. Variants at the floor of the assay were thinned out.

B1: glmS ribozyme (parent)
chain: AUAAAAGCGCCAGAACUACAGAAAUGUAGUUGACGAGGAGGAGGUUUAUCGAAUUUUCGGCGGAUGCCUCCAAA

Variants of: B1
Assay: self-cleavage kobs at 640 uM GlcN6P; higher = faster cleavage; RNA array
Details: with glucosamine-6-phosphate
Method in brief: (§1)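 In situ transcription by E. coli RNA polymerase produced barcoded ribozyme variants on sequenced MiSeq chips, and a hybridised Cy3 probe tracked them at 37 °C. Glucosamine-6-phosphate was flowed in at 40 μM to 10 mM in HEPES/KCl/Mg(OAc)2 buffer. kcat and KM were taken from weighted Michaelis–Menten fits of kobs values from exponential decay fits.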

Variant	self-cleavage kobs at 640 uM GlcN6P [s⁻¹]
AUAAAAGCGCCAGAACUACAGAAAUGUAGUUAACGAGGAGGAAGUUUAUCGAAUUUUCGGCGAGUGCCUCCAAA [G32A G43A G63A A64G]	< 1e-05
AUAAAAGCGCCAGAACUACAGAAAUGUAGUUCACGGUGAGGAGGUUUAUCGAAUUUUCGGCGGAUGCCUCCAAA [G32C A36G G37U]	< 1e-05
AUAAAAGCGCCAGAACUACAGAAAUGUAGUGGCCGAGGAGGAGGUUUAUUGAAUUCUCGGCGGGUGCCUCCAAA [U31G A33C C50U U56C A64G]	< 1e-05
AUAAAAGCGCCAGAACUACAGAAAUGUAUUUAACGAGGAGGAGAUUUAUCGAAUUUUCGGCGGUUGCCUCCAAA [G29U G32A G44A A64U]	< 1e-05
AUAAAAGCGCCAGAACUACAGAAAUGUAGAUGGCGAGGAGGAGGUUUAUCGAAUUUCCGGCGGAUGCCUCCAAA [U30A A33G U57C]	< 1e-05
AUAAAAGCGCCAGAACUACAGAAAUGUAUUUGACGAGGAGGAGGUUUAUCGACUUUUCGGCCGAUGCCUCCAAA [G29U A53C G62C]	< 1e-05
AUAAAAGCGCCAGAACUACAGAAAUGUAGUUUACCAGGAGGAGGUAUAUCGAAUUUUCGGCGGAUGGAUCCAAA [G32U G35C U46A C67G C68A]	0.000467 ± 0.00023
AUAAAAGCGCCAGAACUACAGAAAUGUAGUAGAUGAGGAGGAGGUUUAUCUAAUUUUCGGCGGAUGCCUCCAAA [U31A C34U G51U]	< 1e-05
AUAAAAGCGCCAGAACUACAGAAAUGUAGUUAACGAGGAGGAGGUUUAUCGAAUUUACGGCGGAUGCCUGCAAA [G32A U57A C70G]	0.000649 ± 0.00023
AUAAAAGCGCCAGAACUACAGAAAUGUAGUCAACGAGGAGGAGGUUUAUCGAAUUUUCGGCGGAGGCCUCCAAA [U31C G32A U65G]	5.75e-05 ± 1.9e-05
AUAAAAGCGCCAGAACUACAGAAAUGUAGCUGACGAUGAGGAGGUUUAUCGAAUUUUAGGCGGAUGCGUCCAAA [U30C G37U C58A C68G]	7.09e-05 ± 2.2e-05
AUAAAAGCGCCAGAACUACAGAAAUGUAGUGGACGUGUAGGAGGUUUUUCGACUUUUCCGCGGCUGCCUCCAAA [U31G A36U G38U A48U A53C G59C A64C]	< 1e-05
AUAAAAGCGCCAGAACUACAGAAAUGUAGGUGACGAGGAGUAGGUUUAUAGAAUUUUCGGCGGAUGCCUCCAAA [U30G G41U C50A]	< 1e-05
AUAAAAGCGCCAGAACUACAGAAAUGUAGCUUACGAGGAGGAGAUUUCUCGAAUUUACGGCGGAUGCCUCCAAA [U30C G32U G44A A48C U57A]	< 1e-05
AUAAAAGCGCCAGAACUACAGAAAUGUAGUUCACGAGGACGAGGUUUAUCGAAUUUGCGGCGGAUGCCUCCAAA [G32C G40C U57G]	< 1e-05
AUAAAAGCGCCAGAACUACAGAAAUGUAGUGGAGGAGGAGGAGGUUUAUCGAAUUUUCGGCGGAAGCCUCCAAA [U31G C34G U65A]	< 1e-05
AUAAAAGCGCCAGAACUACAGAAAUGUAGGUGACGUGGAGGCGGUUUAUCGAAUUUUCGGCGGUUGGCUCCAAA [U30G A36U A42C A64U C67G]	< 1e-05
AUAAAAGCGCCAGAACUACAGAAAUGUAGUGGACGAUGAGGAGGUUUAUCGAAUUUUCGGCGGAUGCCGCCAAA [U31G G37U U69G]	6.98e-05 ± 2.8e-05
AUAAAAGCGCCAGAACUACAGAAAUGUAGCUUACGAGGAGGAGGUUAAUCGAAUUUUCGGCGGAUGCCUCCAAA [U30C G32U U47A]	0.000115 ± 3.3e-05
AUAAAAGCGCCAGAACUACAGAAAUGUAGUCGACGAGGAGGAGGUUUAUCGAAUUUUCGUCGGAUGGCUCCAAA [U31C G60U C67G]	< 1e-05
AUAAAAGCGCCAGAACUACAGAAAUGUAGUUUUCGAGGAGGAGGAUUAUCGAAUUUUCGGCGGAUGCCUCCAAA [G32U A33U U45A]	< 1e-05
AUAAAAGCGCCAGAACUACAGAAAUGUAGUUCACUAGGAGGAGGUUUAUCGAAUUUUCAGCGGAUGCCUCCAAA [G32C G35U G59A]	< 1e-05
AUAAAAGCGCCAGAACUACAGAAAUGUAGCUGACGAGGAGGAGGUGUAUCGAAUUUUCGGCGGAUGCCUUCAAA [U30C U46G C70U]	4.5e-05 ± 2e-05
AUAAAAGCGCCAGAACUACAGAAAUGUAGGUGACGAGGGGUAGGUUUGUCGAAUUUUCGGCGGAUGCCCCCAAA [U30G A39G G41U A48G U69C]	< 1e-05

Variants of: B1
Assay: self-cleavage kobs at 2500 uM GlcN6P; higher = faster cleavage; RNA array
Details: with glucosamine-6-phosphate
Method in brief: as §1

Variant	self-cleavage kobs at 2500 uM GlcN6P [s⁻¹]
AUAAAAGCGCCAGAACUACAGAAAUGUAGUUAACGAGGAGGAAGUUUAUCGAAUUUUCGGCGAGUGCCUCCAAA [G32A G43A G63A A64G]	< 1e-05
AUAAAAGCGCCAGAACUACAGAAAUGUAGUGGCCGAGGAGGAGGUUUAUUGAAUUCUCGGCGGGUGCCUCCAAA [U31G A33C C50U U56C A64G]	< 1e-05
AUAAAAGCGCCAGAACUACAGAAAUGUAGUAGAUGAGGAGGAGGUUUAUCUAAUUUUCGGCGGAUGCCUCCAAA [U31A C34U G51U]	< 1e-05
AUAAAAGCGCCAGAACUACAGAAAUGUAGUCAACGAGGAGGAGGUUUAUCGAAUUUUCGGCGGAGGCCUCCAAA [U31C G32A U65G]	0.000133 ± 3.3e-05
AUAAAAGCGCCAGAACUACAGAAAUGUAGCUGACGAUGAGGAGGUUUAUCGAAUUUUAGGCGGAUGCGUCCAAA [U30C G37U C58A C68G]	0.000165 ± 3.6e-05
AUAAAAGCGCCAGAACUACAGAAAUGUAGGUGACGAGGAGUAGGUUUAUAGAAUUUUCGGCGGAUGCCUCCAAA [U30G G41U C50A]	< 1e-05
AUAAAAGCGCCAGAACUACAGAAAUGUAGCUUACGAGGAGGAGAUUUCUCGAAUUUACGGCGGAUGCCUCCAAA [U30C G32U G44A A48C U57A]	< 1e-05
AUAAAAGCGCCAGAACUACAGAAAUGUAGGUGACGUGGAGGCGGUUUAUCGAAUUUUCGGCGGUUGGCUCCAAA [U30G A36U A42C A64U C67G]	< 1e-05
AUAAAAGCGCCAGAACUACAGAAAUGUAGUGGACGAUGAGGAGGUUUAUCGAAUUUUCGGCGGAUGCCGCCAAA [U31G G37U U69G]	9.82e-05 ± 3e-05
AUAAAAGCGCCAGAACUACAGAAAUGUAGCUUACGAGGAGGAGGUUAAUCGAAUUUUCGGCGGAUGCCUCCAAA [U30C G32U U47A]	0.000106 ± 3e-05
AUAAAAGCGCCAGAACUACAGAAAUGUAGUCGACGAGGAGGAGGUUUAUCGAAUUUUCGUCGGAUGGCUCCAAA [U31C G60U C67G]	< 1e-05
AUAAAAGCGCCAGAACUACAGAAAUGUAGUUCACUAGGAGGAGGUUUAUCGAAUUUUCAGCGGAUGCCUCCAAA [G32C G35U G59A]	< 1e-05
AUAAAAGCGCCAGAACUACAGAAAUGUAGGUGACGAGGGGUAGGUUUGUCGAAUUUUCGGCGGAUGCCCCCAAA [U30G A39G G41U A48G U69C]	< 1e-05

Variants of: B1
Assay: self-cleavage kobs at 10000 uM GlcN6P; higher = faster cleavage; RNA array
Details: with glucosamine-6-phosphate
Method in brief: as §1

Variant	self-cleavage kobs at 10000 uM GlcN6P [s⁻¹]
AUAAAAGCGCCAGAACUACAGAAAUGUAGGUGACGAGGGGUAGGUUUGUCGAAUUUUCGGCGGAUGCCCCCAAA [U30G A39G G41U A48G U69C]	< 1e-05
